From PMC8304084, “A Concerted Action of UBA5 C-Terminal Unstructured Regions Is Important for Transfer of Activated UFM1 to UFC1” (International Journal of Molecular Sciences, 2021)
Where two headings read alike, the source gives them in different places.

Tests used:
[1] = target: Full length UFC1, residues 1–167 (UniProt Q9Y3C8); test: ITC; VP-ITC, 25 °C; UBA5 peptides (~400 µM) titrated into 20–25 µM binding partner; 25 mM HEPES pH 7.5, 100 mM NaCl; one-site model; a single profile for each interaction
[2] = target: Full length UFC1, residues 1–167 (UniProt Q9Y3C8); test: as above; remark: listed apart in the source

Kd [1]: > 11 µM
Ka [2]: 30000 M⁻¹
Kd [2]: 10 µM
dH [2]: -4.99 kcal/mol
stoichiometry N [2]: 0.95
B1: UBA5 C-terminal region R3, residues 388–404 (peptide)
chain: GAMEDSGESLEDLMAKMKNM
